Measured values: patent US20180009908
Changes are numbered by the printed parent chain. Names and notes keep the numbering of the source. Like-named read-outs stand apart in the source and are kept apart here.

Legend:
[1] = LCMS, IgG4 BsAb co-expression; HCB homodimer species
[2] = target: T1, HA-tagged human IgG1 Fc portion with CH3 mutations Y349S, K370Y, T366M, K409V; assay: UPLC SEC of protein G-purified one-arm antibody co-expressed in HEK293F
T1 chain: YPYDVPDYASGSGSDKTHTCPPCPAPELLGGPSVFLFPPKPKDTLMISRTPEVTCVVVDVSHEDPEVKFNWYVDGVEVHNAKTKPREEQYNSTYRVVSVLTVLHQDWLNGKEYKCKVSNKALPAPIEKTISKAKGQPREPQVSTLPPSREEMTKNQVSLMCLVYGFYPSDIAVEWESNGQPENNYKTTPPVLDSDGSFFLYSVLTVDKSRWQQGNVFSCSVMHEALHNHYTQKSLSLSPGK

[3] = target: T2, HA-tagged human IgG1 Fc portion with CH3 mutations Y349S, K370Y, T366V, K409V; assay: as above
T2 chain: T1 chain with M160V

[4] = target: matuzumab HC_20.8.37_B + matuzumab LC (IgG1); assay: LCMS, IgG1 BsAb co-expression; HCA/HCB heterodimer carrying two LC2
[5] = target: matuzumab HC_20.8.34_B + matuzumab LC (IgG1); assay: as above
[6] = target: matuzumab HC_20.8_B + matuzumab LC (IgG1); assay: as above
[7] = target: matuzumab HC_20.8.37_B + matuzumab LC (IgG1); assay: LCMS, IgG1 BsAb co-expression in HEK293F
[8] = target: matuzumab HC_20.8.34_B + matuzumab LC (IgG1); assay: LCMS, IgG1 BsAb co-expression in HEK293F
[9] = target: matuzumab HC_20.8_B + matuzumab LC (IgG1); assay: LCMS, IgG1 BsAb co-expression in HEK293F
[10] = target: matuzumab HC_20.8.37_B + matuzumab LC (IgG1); assay: LCMS, IgG1 BsAb co-expression; HCA/HCB heterodimer carrying two LC1
[11] = target: matuzumab HC_20.8.34_B + matuzumab LC (IgG1); assay: as above
[12] = target: matuzumab HC_20.8_B + matuzumab LC (IgG1); assay: as above
[13] = LCMS, IgG1 BsAb co-expression; HCA homodimer species

B1: BHA10 HC_7.8.60_B + BHA10 LC (IgG4 HC backbone) (protein)
chain 1: QVQLVQSGAEVKKPGSSVKVSCKASGYTFTTYYLHWVRYAPGQGLEWMGWIYPGNVHAQYNEKFKGRVTITADKSTSTAYMELSSLRSEDTAVYYCARSWEGFPYWGRGTTVTVSSASTKGPSVFPLAPCSRSTSESTAALGCLVKDYFPEPVTVSWNSGALTSGVHTFPAVLQSSGLYSLSSVVTVPSSSLGTKTYTCNVDHKPSNTKVDKRVESDYGPPCPPCPAPEAAGGPSVFLFPPKPKDTLMISRTPEVTCVVVDVSQEDPEVQFNWYVDGVEVHNAKTKPREEQFQSTYRVVSVLTVLHQDWLNGKEYKCKVSNKGLPSSIEKTISKAKGQPRRPRVYTLPPSQEEMTKNQVSLVCLVKGFYPSDIAVEWESNGQPENNYKTTPPVLDSDGSFFLYSVLTVDKSRWQEGNVFSCSVMHEALHNHYTQKSLSLSLG
chain 2: DIQMTQSPSSLSASVGDRVTITCKASQNVGINVAWYQRKPGDAPKSLISSASYRYSGVPSRFSGSGSGTDFTLTISSLQPEDFATYFCQQYDTYPFTFGQGTKVEIKRTVAAPSVFIFPPSKEQLKSGTASVVCLLNNFYPREAKVQWKVDNALQSGNSQESVTEQDSKDSTYSLSSTLTLSKADYEKHKVYACEVTHQGLSSPVTKSFNRGEC
For B1, the % BB Homodimer (incorrect assembly) [1] was 4.2%.

B2: BHA10 HC_20.8.34_B + BHA10 LC (IgG4 HC backbone) (protein)
chain 1: B1 chain 1 with R341E, R343Q, E352G, E353D, S360Q, V362T, Y403A, V405R
chain 2: B1 chain 2
In the case of B2, the % BB Homodimer (incorrect assembly) [1] is reported as 0%.

B3: anti-c-Met 5D5 VH-human IgG1 HC with CH3 mutations E357D, S364Q, Y407A, with 5D5 light chain (protein)
chain 1: EVQLVESGGGLVQPGGSLRLSCAASGYTFTSYWLHWVRQAPGKGLEWVGMIDPSNSDTRFNPNFKDRFTISADTSKNTAYLQMNSLRAEDTAVYYCATYRSYVTPLDYWGQGTLVTVSSASTKGPSVFPLAPSSKSTSGGTAALGCLVKDYFPEPVTVSWNSGALTSGVHTFPAVLQSSGLYSLSSVVTVPSSSLGTQTYICNVNHKPSNTKVDKRVEPKSCDKTHTCPPCPAPELLGGPSVFLFPPKPKDTLMISRTPEVTCVVVDVSHEDPEVKFNWYVDGVEVHNAKTKPREEQYNSTYRVVSVLTVLHQDWLNGKEYKCKVSNKALPAPIEKTISKAKGQPREPQVYTLPPSREDMTKNQVQLTCLVKGFYPSDIAVEWESNGQPENNYKTTPPVLDSDGSFFLASKLTVDKSRWQQGNVFSCSVMHEALHNHYTQKSLSLSPGK
chain 2: DIQMTQSPSSLSASVGDRVTITCKSSQSLLYTSSQKNYLAWYQQKPGKAPKLLIYWASTRESGVPSRFSGSGSGTDFTLTISSLQPEDFATYYCQQYYAYPWTFGQGTKVEIKRTVAAPSVFIFPPSDEQLKSGTASVVCLLNNFYPREAKVQWKVDNALQSGNSQESVTEQDSKDSTYSLSSTLTLSKADYEKHKVYACEVTHQGLSSPVTKSFNRGEC
B3 showed a % heterodimer (UPLC) [2] of 93% and a % heterodimer (UPLC) [3] of 92.5%.

B4: anti-c-Met 5D5 VH-human IgG1 HC with CH3 mutations E356G, E357D, S364Q, Y407A, with 5D5 light chain (protein)
chain 1: B3 chain 1 with E358G
chain 2: B3 chain 2
With B4 the % heterodimer (UPLC) [2] was 94% and the % heterodimer (UPLC) [3] was 92%.

B5: anti-c-Met 5D5 VH-human IgG1 HC with CH3 mutations E357D, S364R, Y407A, with 5D5 light chain (protein)
chain 1: B3 chain 1 with Q366R
chain 2: B3 chain 2
For B5, the % heterodimer (UPLC) [2] was 85% and the % heterodimer (UPLC) [3] was 85%.

B6: MetMAb HC_20.8.26_A + MetMAb LC (IgG1) (protein)
chain 1: EVQLVESGGGLVQPGGSLRLSCAASGYTFTSYWLHWVRKAPGKGLEWVGMIDPSNSDTRFNPEFKDRFTISADTSKNTAYLQMNSLRAEDTAVYYCATYRSYVTPLDYWGQGTLVTVSSASTKGPSVFPLAPSSKSTSGGTAALGCLVKDYFPEPVTVSWNSGALTSGVATGPAVLQSSGLYSLSSVVTVPSSSLGTQTYICNVNHKPSNTKVDKKVEPKSCDKTHTCPPCPAPELLGGPSVFLFPPKPKDTLMISRTPEVTCVVVDVSHEDPEVKFNWYVDGVEVHNAKTKPREEQYQSTYRVVSVLTVLHQDWLNGKEYKCKVSNKALPAPIEKTISKAKGQPREPQVSTLPPSREEMTKNQVSLMCLVYGFYPSDIAVEWESNGQPENNYKTTPPVLDSDGSFFLYSVLTVDKSRWQQGNVFSCSVMHEALHNHYTQKSLSLSPGK
chain 2: RIQMTQSPSSLSASVGDRVTITCKSSQSLLYTSSQKNYLAWYQDKPGKAPKLLIYWASTRESGVPSRFSGSGSGTDFTLTISSLQPEDFATYYCQQYYAYPWTFGQGTKVEIKGQPKAAPSVTLFPPSSEELQANKATLVCYISDFYPGAVTVAWKADSSPVKAGVETTTPSKQSNNKYAAWSYLSLTPEQWKSHRSYSCQVTHEGSTVEKTVAPTEC
Protein B6 has a % AB (2x LC2) (incorrect assembly) [4] of 20.9%, a % AB (2x LC2) (incorrect assembly) [5] of 4.2% and a % AB (2x LC2) (incorrect assembly) [6] of 33.3%. The % AB (LC1/LC2) (correct IgG BsAb assembly) [7] was 79.1%, the % AB (LC1/LC2) (correct IgG BsAb assembly) [8] was 95.8% and the % AB (LC1/LC2) (correct IgG BsAb assembly) [9] was 58.6%. The % AB (2x LC1) (incorrect assembly) [10] was 0%, the % AB (2x LC1) (incorrect assembly) [11] was 0% and the % AB (2x LC1) (incorrect assembly) [12] was 0%.

B7: MetMAb HC_20.8_A + MetMAb LC (IgG1) (protein)
chain 1: B6 chain 1 with M368V
chain 2: B6 chain 2
B7 showed a % AA Homodimer (incorrect assembly) [13] of 0%, a % AB (2x LC2) (incorrect assembly) [6] of 24.4% and a % AB (LC1/LC2) (correct IgG BsAb assembly) [9] of 75.6%. For the same protein, the % AB (2x LC1) (incorrect assembly) [12] was 0%.

B8: matuzumab HC_7.8.60_B + matuzumab LC (IgG4 HC backbone) (protein)
chain 1: QVQLVQSGAEVKKPGASVKVSCKASGYTFTSHWMHWVRYAPGQGLEWIGEFNPSNGRTNYNEKFKSKATMTVDTSTNTAYMELSSLRSEDTAVYYCASRDYDYDGRYFDYWGRGTLVTVSSASTKGPSVFPLAPCSRSTSESTAALGCLVKDYFPEPVTVSWNSGALTSGVHTFPAVLQSSGLYSLSSVVTVPSSSLGTKTYTCNVDHKPSNTKVDKRVESDYGPPCPPCPAPEAAGGPSVFLFPPKPKDTLMISRTPEVTCVVVDVSQEDPEVQFNWYVDGVEVHNAKTKPREEQFQSTYRVVSVLTVLHQDWLNGKEYKCKVSNKGLPSSIEKTISKAKGQPRRPRVYTLPPSQEEMTKNQVSLVCLVKGFYPSDIAVEWESNGQPENNYKTTPPVLDSDGSFFLYSVLTVDKSRWQEGNVFSCSVMHEALHNHYTQKSLSLSLG
chain 2: DIQMTQSPSSLSASVGDRVTITCSASSSVTYMYWYQRKPGDAPKLLIYDTSNLASGVPSRFSGSGSGTDYTFTISSLQPEDIATYYCQQWSSHIFTFGQGTKVEIKRTVAAPSVFIFPPSKEQLKSGTASVVCLLNNFYPREAKVQWKVDNALQSGNSQESVTEQDSKDSTYSLSSTLTLSKADYEKHKVYACEVTHQGLSSPVTKSFNRGEC
B8 gave a % BB Homodimer (incorrect assembly) [1] of 0%.

B9: matuzumab HC_20.8.34_B + matuzumab LC (IgG4 HC backbone) (protein)
chain 1: B8 chain 1 with R346E, R348Q, E357G, E358D, S365Q, V367T, Y408A, V410R
chain 2: B8 chain 2
With B9 the % BB Homodimer (incorrect assembly) ([1]; MetMAb × Matuzumab IgG BsAbs (with select CH3 Designs)) was 0% and the % BB Homodimer (incorrect assembly) ([1]; Pertuzumab × Matuzumab IgG BsAbs (with select CH3 Designs)) was 3.6%.
